Target: RBD–GFP11 (Rho-binding domain of Rhotekin fused to GFP β-strand 11) (UniProt Q8C6B2)
Assay: split reporter (BiFC, NanoBiT); tripartite split-GFP; HEK_GFP1-9 cells stably expressing GFP1-9, transiently co-transfected with GFP10 and GFP11 fusions (1:1); fixed, double immunostaining with anti-GFP10 and anti-GFP11; flow cytometry, mean GFP fluorescence in the GFP10+ GFP11+ gate

Chain of UniProt Q8C6B2 (Q8C6B2 whole entry, the tested form may be a part): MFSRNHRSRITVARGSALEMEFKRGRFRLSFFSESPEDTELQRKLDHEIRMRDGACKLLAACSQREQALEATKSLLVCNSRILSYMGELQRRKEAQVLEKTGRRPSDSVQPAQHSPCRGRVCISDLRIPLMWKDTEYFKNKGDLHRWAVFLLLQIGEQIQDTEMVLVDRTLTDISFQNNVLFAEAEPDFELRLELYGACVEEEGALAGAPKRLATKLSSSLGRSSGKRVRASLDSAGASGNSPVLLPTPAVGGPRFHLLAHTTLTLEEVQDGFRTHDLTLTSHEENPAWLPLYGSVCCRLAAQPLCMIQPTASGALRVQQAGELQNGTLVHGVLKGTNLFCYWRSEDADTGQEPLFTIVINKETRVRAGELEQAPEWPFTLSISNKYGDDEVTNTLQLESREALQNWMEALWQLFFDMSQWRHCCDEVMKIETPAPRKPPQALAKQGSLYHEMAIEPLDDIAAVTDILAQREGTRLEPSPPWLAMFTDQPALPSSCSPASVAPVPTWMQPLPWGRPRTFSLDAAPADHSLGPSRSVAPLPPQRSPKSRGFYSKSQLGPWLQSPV

Row | Substance | fold change of mean GFP fluorescence against the dominant-negative mutant [fold]
1 | GFP10–RhoA L63 (constitutively active RhoA mutant fused to GFP β-strand 10) (from UniProt P61586 1-193) (natural protein) | 5
2 | GFP10–RhoB L63 (constitutively active RhoB mutant fused to GFP β-strand 10) (from UniProt P62745 1-196) (natural protein) | 5

Source: publication PMC5818064
